According to patent publication US20080153130:

B1: UBP1ΔC2 protease (UBP1 truncated by 98 N-terminal amino acids, mutation C Gln754Leu, six histidine residues at its C-end) (protein)
chain: GGFIAGLVNDGNTCFMNSVLQSLASSRELMEFLDNNVIRTYEEIEQNEHNEEGNGQESAQDEATHKKNTRKGGKVYGKHKKKLNRKSSSKEDEEKSQEPDITFSVALRDLLSALNAKYYRDKPYFKTNSLLKAMSKSPRKNILLGYDQEDAQEFFQNILAELESNVKSLNTEKLDTTPVAKSELPDDALVGQLNLGEVGTVYIPTEQIDPNSILHDKSIQNFTPFKLMTPLDGITAERIGCLQCGENGGIRYSVFSGLSLNLPNENIGSTLKLSQLLSDWSKPEIIEGVECNRCALTAAHSHLFGQLKEFEKKPEGSIPEKPINAVKDRVHQIEEVLAKPVIDDEDYKKLHTANMVRKCSKSKQILISRPPPLLSIHINRSVFDPRTYMIRKNNSKVLFKSRLNLAPWCCDINEINLDARLPMSKKEKAAQQDSSEDENIGGEYYTKLHERFEQEFEDSEEEKEYDDAEGNYASHYNHTKDISNYDPLNGEVDGVTSDDEDEYIEETDALGNTIKKRIIEHSDVENENVKDNEELQEIDNVSLDEPKINVEDQLETSSDEEDVIPAPPINYARSFSTVPATPLTYSLRSVIVHYGTHNYGHYIAFRKYRGCWWRISDETVYVVDEAEVLSTPGVFMLFYEYDFDEETGKMKDDLEAILSNNEEDDEKEQEQKGVQEPKESQEQGEGEEQEEGQEQMKFERTEDHRDISGKDVNGSHHHHHH
B2: UBP1ΔC protease (UBP1 deletion mutant with mutation C at position 754) (protein)
chain: GGDHLNYIVESVSEMTTNFRNNNSLSRWLPRSKFTHLDEEILKRGGFIAGLVNDGNTCFMNSVLQSLASSRELMEFLDNNVIRTYEEIEQNEHNEEGNGQESAQDEATHKKNTRKGGKVYGKHKKKLNRKSSSKEDEEKSQEPDITFSVALRDLLSALNAKYYRDKPYFKTNSLLKAMSKSPRKNILLGYDQEDAQEFFQNILAELESNVKSLNTEKLDTTPVAKSELPDDALVGQLNLGEVGTVYIPTEQIDPNSILHDKSIQNFTPFKLMTPLDGITAERIGCLQCGENGGIRYSVFSGLSLNLPNENIGSTLKLSQLLSDWSKPEIIEGVECNRCALTAAHSHLFGQLKEFEKKPEGSIPEKPINAVKDRVHQIEEVLAKPVIDDEDYKKLHTANMVRKCSKSKQILISRPPPLLSIHINRSVFDPRTYMIRKNNSKVLFKSRLNLAPWCCDINEINLDARLPMSKKEKAAQQDSSEDENIGGEYYTKLHERFEQEFEDSEEEKEYDDAEGNYASHYNHTKDISNYDPLNGEVDGVTSDDEDEYIEETDALGNTIKKRIIEHSDVENENVKDNEELQEIDNVSLDEPKINVEDQLETSSDEEDVIPAPPINYARSFSTVPATPLTYSLRSVIVHYGTHNYGHYIAFRKYRGCWWRISDETVYVVDEAEVLSTPGVFMLFYEYDFDEETGKMKDDLEAILSNNEEDDEKEQEQKGVQEPKESQEQGEGEEQEEGQEQMKFERTEDHRDISGKDVNGSHHHHHH

Legend:
[1] = biological target: His6UBI::ElisaC hybrid protein (six histidines, ubiquitin and the C-terminal fragment of UBP1ΔC protease)
[2] = biological target: T1, UBI::KALA hybrid protein substrate (ubiquitin fused to the 18-amino-acid KALA peptide)
T1 chain: DPGDKDGDGYISAAEAMA

| Protein | preparative digestion of the hybrid protein, then Ni-NTA chromatography and SDS-PAGE [1] | proteolytic activity (cleavage of ubiquitin from the hybrid substrate, SDS-PAGE image analysis), fold over UBP1ΔC [1] | proteolytic activity (cleavage of ubiquitin from the hybrid substrate, SDS-PAGE image analysis), fold over UBP1ΔC [2] | proteolytic activity (cleavage of ubiquitin from the hybrid substrate, SDS-PAGE image analysis), reference enzyme [1] | proteolytic activity (cleavage of ubiquitin from the hybrid substrate, SDS-PAGE image analysis), reference enzyme [2] |
| --- | --- | --- | --- | --- | --- |
| B1 | High purity ElisaC protein was obtained, cleaved from 6HisUBI | the enzyme UBP1ΔC2 is 5-6 times more active than mutant UBP1 AC | the enzyme UBP1ΔC2 is 5-6 times more active than mutant UBP1 AC |  |  |
| B2 |  |  |  | the enzyme UBP1ΔC2 is 5-6 times more active than mutant UBP1 AC | the enzyme UBP1ΔC2 is 5-6 times more active than mutant UBP1 AC |
